Paper PMC10030653, “ClpC2 protects mycobacteria against a natural antibiotic targeting ClpC1-dependent protein degradation” (Communications Biology, 2023)

Target: Mycobacterium tuberculosis ClpC2 (full length, wild type) (Mycobacterium tuberculosis)
Assay: SEC

## Mycobacterium tuberculosis ClpC2 (full length, wild type) (natural protein)
  stoichiometry N: 2
